Experimental data as given in patent USRE48267E1, “Variants of C-type natriuretic peptide” (priority 2009, dated 2020).
Where a SMILES comes first, the peptide text is derived from it. Bridges are numbered along the chain shown (N, C = ends). Where no end group is shown, it is not given here. The star is where a group is joined. CH3O(CH2CH2O)11CH2CH2CO = COCCOCCOCCOCCOCCOCCOCCOCCOCCOCCOCCOCCC(=O)*; PEG1K = polydispersed PEG1K

Molecular target: Recombinant human NEP (Homo sapiens, UniProt P08473)
Test: in vitro NEP cleavage assay (disappearance of non-cleaved CNP variant)
Experimental: To determine the effects of amino acid substitutions, amino acid extensions, backbone modifications, side chain modifications and PEGylation on the susceptibility of CNP variants to neutral endopeptidase (NEP) cleavage, peptide cleavage assays were carried out using an in vitro assay that monitored disappearance of the non-cleaved CNP variant.
Recombinant human NEP (1 ug/mL final concentration) was added to 100 uM CNP variant diluted in 0.1 M Tris, pH 7. The reaction mixture was incubated at 37° C. for various periods of time, and the reaction was quenched with EDTA (10 mM final) followed by heat denaturation. The reaction mixture was reduced and then the reaction products were analyzed using HPLC and mass spectroscopy. The half-life of the CNP variant was calculated based on the disappearance of intact CNP variant over time.

Recombinant human NEP, sequence (P08473 whole entry): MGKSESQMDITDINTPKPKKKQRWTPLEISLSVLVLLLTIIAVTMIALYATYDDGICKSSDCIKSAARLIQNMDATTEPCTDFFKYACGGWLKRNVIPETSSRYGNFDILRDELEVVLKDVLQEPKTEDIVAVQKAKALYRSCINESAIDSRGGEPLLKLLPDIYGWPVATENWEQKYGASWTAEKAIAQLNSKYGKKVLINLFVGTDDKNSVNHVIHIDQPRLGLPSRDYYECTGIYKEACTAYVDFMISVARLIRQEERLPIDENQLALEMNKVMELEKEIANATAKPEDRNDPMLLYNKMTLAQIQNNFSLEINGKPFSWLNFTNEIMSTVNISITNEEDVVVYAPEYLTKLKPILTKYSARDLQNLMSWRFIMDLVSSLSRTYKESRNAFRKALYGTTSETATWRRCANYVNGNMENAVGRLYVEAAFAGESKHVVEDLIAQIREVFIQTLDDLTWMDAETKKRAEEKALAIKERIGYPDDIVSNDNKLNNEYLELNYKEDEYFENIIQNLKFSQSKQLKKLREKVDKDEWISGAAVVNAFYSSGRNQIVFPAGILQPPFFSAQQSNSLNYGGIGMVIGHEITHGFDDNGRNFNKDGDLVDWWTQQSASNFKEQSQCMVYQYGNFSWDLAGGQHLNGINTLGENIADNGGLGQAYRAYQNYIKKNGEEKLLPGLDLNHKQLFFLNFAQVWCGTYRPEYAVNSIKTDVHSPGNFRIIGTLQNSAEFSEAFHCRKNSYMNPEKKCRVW

Molecule | resistance to NEP cleavage (in words) | NEP Cleavage (t1/2, min) (100 uM peptide, 1 ug/mL NEP, 0.1 M Tris pH 7, 37° C., adjusted t1/2, CNP22 normalized to 80 min) | NEP Cleavage (t1/2, min) (pH 7)
CC[C@H](C)[C@@H]1NC(=O)[C@H](CCCNC(=N)N)NC(=O)[C@H](CC(=O)O)NC(=O)[C@H](CC(C)C)NC(=O)[C@H](CCCCN)NC(=O)[C@H](CC(C)C)NC(=O)CNC(=O)[C@H](Cc2ccccc2)NC(=O)[C@@H](NC(=O)CNC(=O)[C@H](CCCCN)NC(=O)[C@H](CO)NC(=O)[C@H](CC(C)C)NC(=O)CNC(=O)CCOCCOCCOCCOCCOCCOCCOCCOCCOCCOCCOCCOCCOCCOCCOCCOCCOCCOCCOCCOCCOCCOCCOCCOC)CSSC[C@@H](C(=O)O)NC(=O)CNC(=O)[C@H](CC(C)C)NC(=O)CNC(=O)[C@H](CO)NC(=O)[C@H](CCSC)NC(=O)[C@H](CO)NC(=O)CNC1=O [PEO24-CNP22] | resistant to NEP degradation over the assay period of 160 minutes | >>160 min | 
PEG1K-GANRR-CNP22(K4R): GANRR-CNP22, K4R (SEQ ID NO: 36) conjugated at the N-terminus to PEG1K (PEG1K-GANRRGLSRGCFGLKLDRIGSMSGLGC; not fully specified (bridges); ends and bridges not checked) |  |  | >160 min
CC[C@H](C)[C@@H]1NC(=O)[C@H](CCCNC(=N)N)NC(=O)[C@H](CC(=O)O)NC(=O)[C@H](CC(C)C)NC(=O)[C@H](CCCCN)NC(=O)[C@H](CC(C)C)NC(=O)CNC(=O)[C@H](Cc2ccccc2)NC(=O)[C@@H](NC(=O)CNC(=O)[C@H](CCCNC(=N)N)NC(=O)[C@H](CO)NC(=O)[C@H](CC(C)C)NC(=O)CNC(=O)[C@H](CCCNC(=N)N)NC(=O)[C@H](CCCNC(=N)N)NC(=O)[C@H](CC(N)=O)NC(=O)[C@H](C)NC(=O)CN)CSSC[C@@H](C(=O)O)NC(=O)CNC(=O)[C@H](CC(C)C)NC(=O)CNC(=O)[C@H](CO)NC(=O)[C@H](CCSC)NC(=O)[C@H](CO)NC(=O)CNC1=O [Analog AY] (H-GANRRGLSRGCFGLKLDRIGSMSGLGC-OH; disulfide 11-27) | same lability to NEP hydrolysis as CNP22 |  | 
PEG2K-CNP22: CNP22 conjugated at the N-terminus to polydispersed PEG2K |  |  | >>160 min
PEG20K-CNP22: CNP22 conjugated at the N-terminus to polydispersed PEG20K |  |  | >>160 min
CC[C@H](C)[C@@H]1NC(=O)[C@H](CCCNC(=N)N)NC(=O)[C@H](CC(=O)O)NC(=O)[C@H](CC(C)C)NC(=O)[C@H](CCCCN)NC(=O)[C@H](CC(C)C)NC(=O)CNC(=O)[C@H](Cc2ccccc2)NC(=O)[C@@H](NC(=O)CNC(=O)[C@H](CCCNC(=N)N)NC(=O)[C@H](CO)NC(=O)[C@H](CC(C)C)NC(=O)CNC(=O)[C@@H](N)CCCNC(=N)N)CSSC[C@@H](C(=O)O)NC(=O)CNC(=O)[C@H](CC(C)C)NC(=O)CNC(=O)[C@H](CO)NC(=O)[C@H](CCSC)NC(=O)[C@H](CO)NC(=O)CNC1=O [Analog AZ] (H-RGLSRGCFGLKLDRIGSMSGLGC-OH; disulfide 7-23) | most resistant to NEP degradation |  | 
PEG5K-CNP22: CNP22 conjugated at the N-terminus to polydispersed PEG5K | resistant to NEP degradation over the assay period of 160 minutes |  | >>160 min
CC[C@H](C)[C@@H]1NC(=O)[C@H](CCCNC(=N)N)NC(=O)[C@H](CC(=O)O)NC(=O)[C@H](CC(C)C)NC(=O)[C@H](CCCCN)NC(=O)[C@H](CC(C)C)NC(=O)CNC(=O)[C@H](Cc2ccccc2)NC(=O)[C@@H](NC(=O)CNC(=O)[C@H](CCCNC(=N)N)NC(=O)[C@H](CO)NC(=O)[C@H](CC(C)C)NC(=O)CNC(=O)[C@H](CCCNC(=N)N)NC(=O)[C@@H]2CCCN2C(=O)[C@H](CC(N)=O)NC(=O)[C@H](C)NC(=O)CNC(=O)CCOCCOCCOCCOCCOCCOCCOCCOCCOCCOCCOCCOC)CSSC[C@@H](C(=O)O)NC(=O)CNC(=O)[C@H](CC(C)C)NC(=O)CNC(=O)[C@H](CO)NC(=O)[C@H](CCSC)NC(=O)[C@H](CO)NC(=O)CNC1=O [PEO12-GANPR-CNP22(K4R)] ({CH3O(CH2CH2O)11CH2CH2CO}-GANPRGLSRGCFGLKLDRIGSMSGLGC-OH; disulfide 11-27; C-terminus assumed) | same half-life as wtCNP22 |  | 
DLRVDTKSRAAWARLLQEHPNARKYKGANKKGLSKGCFGLKLDRIGSMSGLGC (disulfide 37-53) [Analog BM, reference compound] | resistant to NEP degradation |  | 
